Reference: US20080207488A1, “Method for Detecting Peptides Comprising a Cross-B Structure” (priority 2005, published 2008)

Key:
[1] = Stability testing of biopharmaceuticals under denaturing conditions (ThT fluorescence, tPA activation); type: physicochemical; details: ThT at 25 μg/mL, tPA activation at 100 μg/mL
Method: To mimic accelerated stability testing several therapeutics were exposed to denaturing conditions and assayed for amyloid-like properties before and after treatment by tPA activation assay at 100 μg/mL protein and ThT fluorescence enhancement assay at 25 μg/mL protein. For this purpose, 5 mg/mL Glucagon (Glucagen; Novo Nordisk Farma B.V., Alphen aan de Rijn, The Netherlands) was incubated at 37° C. in 0.01 M HCl for 48 hours. One mg/mL Etanercept (Enbrel; Wyeth Pharmaceuticals B.V., Hoofddorp, The Netherlands) in 67 mM sodium phosphate buffer, 100 mM NaCl pH 7.0 was gradually heated from 30° C. to 85° C. over a period of 12 minutes and afterwards cooled to 4° C. for 5 minutes, this treatment was repeated 4 times. Abciximab (Reopro; Centocor B.V., Leiden, The Netherlands) and Infliximab (Remicade; Schering-Plough B.V., Utrecht, The Netherlands) were incubated at 65° C. for 16 and 72 hours, respectively.

[2] = ThT fluorescence of CpG-ODN-protein mixtures; type: physicochemical; details: for increase in ThT fluorescence / ThT fluorescence enhancement: 1 mg ml^−1 protein; for increase in ThT fluorescence: 30 min. at room temperature (FIG. 4D, E); for ThT fluorescence enhancement: overnight
Method: Fluorescence of ThT-protein/peptide adducts was measured as follows. […] Fluorescence was measured at 485 nm upon excitation at 435 nm. Background signals from buffer, buffer with ThT and protein/peptide solution without ThT were subtracted from corresponding measurements with protein solution incubated with ThT. […] Fluorescence was measured in triplicate on a Hitachi F-4500 fluorescence spectrophotometer (Ltd., Tokyo, Japan).
Enhancement of ThT fluorescence was measured similarly as described above. […]

platelets = assay: Platelet aggregation assay; type: cell-based, human; details: 512-fold diluted plasma spiked with 250 μg/ml BSA-AGE, tenfold diluted
Method: In a next series of experiments, diluted plasma was enriched with a 250 μg/ml BSA-AGE spike and subsequently added to tPA F-biotin-Streptavidin-Sepharose. […] Results are compared to platelet activating properties of the spiked plasma before depletion of BSA-AGE.
Freshly drawn human aspirin free blood was mixed gently with citrate buffer to avoid coagulation. Blood was spinned for 15′ at 150*g at 20° C. and supernatant was collected; platelet rich plasma (PRP) with an adjusted final platelet number of 200,000 platelets/μl. Platelets were kept at 37° C. for at least 30′, before use in the assays, to ensure that they were in the resting state. For the aggregometric assays, 270 μl platelet solution was added to a glass tube and prewarmed to 37° C. A stirring magnet was added and rotation was set to 900 rpm, and the apparatus (Whole-blood aggregometer, Chrono-log, Havertown, Pa., USA) was blanked. A final volume of 30 μl of tester solution was added, containing the agonist of interest (buffer, control, diluted plasma with BSA-AGE, before and after contacting tPA F-biotin-Streptavidin-Sepharose), prediluted in HEPES-Tyrode buffer pH 7.2. Aggregation was followed in time by measuring the absorbance of the solution, that will decrease in time upon platelet aggregation. […] Aggregation was recorded for 15′ and expressed as the percentage of the transmitted light (0-100%).

LRP cl-IV = target: T1, LRP cl-IV (Homo sapiens, UniProt Q07954); assay: ELISA, binding of LRP cluster IV to misfolded proteins; details: 5 μg/ml coated protein
T1 construct: Cluster IV of the low-density lipoprotein (LDL) receptor-related protein (LRP cl-IV) was cloned from complete cDNA of THP1 cells; made in house; host or cells: HEK293E/S cells; culture supernatant used without purification
T1 sequence (Q07954 3332-3778 limits assumed): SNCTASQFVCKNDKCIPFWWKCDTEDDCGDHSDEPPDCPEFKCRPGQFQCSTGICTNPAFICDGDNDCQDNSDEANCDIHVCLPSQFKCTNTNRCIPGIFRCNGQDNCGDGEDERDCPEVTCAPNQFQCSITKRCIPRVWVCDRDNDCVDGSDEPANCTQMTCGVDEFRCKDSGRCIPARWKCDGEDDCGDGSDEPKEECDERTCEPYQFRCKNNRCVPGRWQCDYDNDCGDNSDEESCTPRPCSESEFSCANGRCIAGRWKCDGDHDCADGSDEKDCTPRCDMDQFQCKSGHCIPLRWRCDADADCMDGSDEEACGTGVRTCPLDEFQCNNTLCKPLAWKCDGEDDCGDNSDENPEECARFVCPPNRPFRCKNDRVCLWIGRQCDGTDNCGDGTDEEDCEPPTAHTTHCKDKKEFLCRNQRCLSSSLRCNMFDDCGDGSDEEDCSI
Method: Binding of LRP cl-IV to misfolded protein was determined using an enzyme linked immuno sorbent assay (ELISA) set-up. For this purpose 50 μl of a 5 μg/ml solution of BSA, BSA-AGE, Hb or Hb-AGE or coat buffer (for negative control) was coated for 1 h with motion. Proteins were diluted in coat buffer (100 mM NaHCO3 pH 9.6). The BSA and Hb controls were prepared freshly by dissolving proteins at 1 mg/ml in PBS by rolling for 10 minutes on a roller bank at room temperature, 10 minutes incubation at 37° C. followed by again 10 minutes incubation at the roller bank. Coat controls were performed with anti-glycated protein antibody 4B5, anti-albumin antibody or anti Hb antibody. After coating the plates were washed twice with PBS/0.1% Tween-20 (v/v) and blocked with 300 μl/well blocking reagent (Roche Diagnostics, Almere, The Netherlands) for 1 h at room temperature with motion. […] After five washes with wash buffer binding of antibody was assessed with a secondary antibody. […] After 5 washes with wash buffer, binding of anti-FLAG antibody and secondary antibodies was assessed with 100 μl/well TMB substrate (ready to use from Tebu Bio). […] After ˜2 minutes absorbance was read at 450 nm.

## Abciximab: abciximab, an inhibitor of blood platelet aggregation (ReoPro, Centocor)
[1]
  amyloid-like properties after exposure to harsh denaturing conditions (low pH, heat): amyloid-like properties are adopted

## lysozyme: chicken egg-white lysozyme
[2]; 1 mg ml^−1 protein exposed to 21.4 μg ml^−1 CPG-ODN (FIG. 4F)
  increased ThT fluorescence: no effect
[2]; 10.4 μg ml^−1 CPG-ODN
  increase in ThT fluorescence: approximately 8 times
[2]; 10.7 μg ml^−1 CPG-ODN
  ThT fluorescence enhancement: 1.1 factor
[2]; 21.4 μg ml^−1 CPG-ODN
  ThT fluorescence enhancement: 1.2 factor
[2]; 21.7 μg ml^−1 CPG-ODN
  increase in ThT fluorescence: ~7 times
[2]; 42.8 μg ml^−1 CPG-ODN
  ThT fluorescence enhancement: 1.4 factor

## albumin-AGE: advanced glycation end-product modified bovine serum albumin
platelets
  platelet aggregation: Platelets readily aggregate
LRP cl-IV
  binding of LRP cl-IV: binds specifically
